Starred links: 1 amine or outer side, 2 acyl side, 3 side chain; linkers in the order of their positions; H or OH if unused. Non-standard residues stand in square brackets, D forms with d. *: point of attachment. Trp(6-Me) = Cc1ccc2c(C[C@H](N)C(=O)O)c[nH]c2c1; Trp(7-Me) = Cc1cccc2c(C[C@H](N)C(=O)O)c[nH]c12; d(γGlu) = O=C(O)[C@@H](CCC(=O)[*:2])N[*:1]; C18 diacid = O=C(O)CCCCCCCCCCCCCCCCC(=O)*; Palmitoyl = CCCCCCCCCCCCCCCC(=O)*; 3Pal = N[C@@H](Cc1cccnc1)C(=O)O; Nle = CCCC[C@H](N)C(=O)O; AEEA = NCCOCCOCC(=O)O; Aib = CC(C)(N)C(=O)O; Sar = CNCC(=O)O
B1: Peptide 60 (peptide)
peptide: {C18 diacid}-[d(γGlu)][AEEA][AEEA]GKHWAV[dA]HL[Nle]-NH2
SMILES: CCCC[C@H](NC(=O)[C@H](CC(C)C)NC(=O)[C@H](Cc1c[nH]cn1)NC(=O)[C@@H](C)NC(=O)[C@@H](NC(=O)[C@H](C)NC(=O)[C@H](Cc1c[nH]c2ccccc12)NC(=O)[C@H](Cc1c[nH]cn1)NC(=O)[C@H](CCCCN)NC(=O)CNC(=O)COCCOCCNC(=O)COCCOCCNC(=O)CC[C@@H](NC(=O)CCCCCCCCCCCCCCCCC(=O)O)C(=O)O)C(C)C)C(N)=O
B2: Peptide 61 (peptide)
peptide: {C18 diacid}-[d(γGlu)][AEEA][AEEA]GRHWAV[dA]HL[Nle]-NH2
SMILES: CCCC[C@H](NC(=O)[C@H](CC(C)C)NC(=O)[C@H](Cc1c[nH]cn1)NC(=O)[C@@H](C)NC(=O)[C@@H](NC(=O)[C@H](C)NC(=O)[C@H](Cc1c[nH]c2ccccc12)NC(=O)[C@H](Cc1c[nH]cn1)NC(=O)[C@H](CCCNC(=N)N)NC(=O)CNC(=O)COCCOCCNC(=O)COCCOCCNC(=O)CC[C@@H](NC(=O)CCCCCCCCCCCCCCCCC(=O)O)C(=O)O)C(C)C)C(N)=O
B3: Peptide 62 (peptide)
peptide: {C18 diacid}-[d(γGlu)][AEEA][AEEA]GNHWAV[dA]FL[Nle]-NH2
SMILES: CCCC[C@H](NC(=O)[C@H](CC(C)C)NC(=O)[C@H](Cc1ccccc1)NC(=O)[C@@H](C)NC(=O)[C@@H](NC(=O)[C@H](C)NC(=O)[C@H](Cc1c[nH]c2ccccc12)NC(=O)[C@H](Cc1c[nH]cn1)NC(=O)[C@H](CC(N)=O)NC(=O)CNC(=O)COCCOCCNC(=O)COCCOCCNC(=O)CC[C@@H](NC(=O)CCCCCCCCCCCCCCCCC(=O)O)C(=O)O)C(C)C)C(N)=O
B4: Peptide 63 (peptide)
peptide: Palmitoyl-[d(γGlu)][AEEA][AEEA]GNH[Trp(6-Me)]AV[dA]HL[Nle]-NH2
SMILES: CCCCCCCCCCCCCCCC(=O)N[C@H](CCC(=O)NCCOCCOCC(=O)NCCOCCOCC(=O)NCC(=O)N[C@@H](CC(N)=O)C(=O)N[C@@H](Cc1c[nH]cn1)C(=O)N[C@@H](Cc1c[nH]c2cc(C)ccc12)C(=O)N[C@@H](C)C(=O)N[C@H](C(=O)N[C@H](C)C(=O)N[C@@H](Cc1c[nH]cn1)C(=O)N[C@@H](CC(C)C)C(=O)N[C@@H](CCCC)C(N)=O)C(C)C)C(=O)O
B5: Peptide 64 (peptide)
peptide: {C18 diacid}-[d(γGlu)][AEEA][AEEA]GN[3Pal]WAV[dA]HL[Nle]-NH2
SMILES: CCCC[C@H](NC(=O)[C@H](CC(C)C)NC(=O)[C@H](Cc1c[nH]cn1)NC(=O)[C@@H](C)NC(=O)[C@@H](NC(=O)[C@H](C)NC(=O)[C@H](Cc1c[nH]c2ccccc12)NC(=O)[C@H](Cc1cccnc1)NC(=O)[C@H](CC(N)=O)NC(=O)CNC(=O)COCCOCCNC(=O)COCCOCCNC(=O)CC[C@@H](NC(=O)CCCCCCCCCCCCCCCCC(=O)O)C(=O)O)C(C)C)C(N)=O
B6: Peptide 65 (peptide)
peptide: {C18 diacid}-[d(γGlu)][AEEA][AEEA]GK(Ac)HWAV[dA]HL[Nle]-NH2
SMILES: CCCC[C@H](NC(=O)[C@H](CC(C)C)NC(=O)[C@H](Cc1c[nH]cn1)NC(=O)[C@@H](C)NC(=O)[C@@H](NC(=O)[C@H](C)NC(=O)[C@H](Cc1c[nH]c2ccccc12)NC(=O)[C@H](Cc1c[nH]cn1)NC(=O)[C@H](CCCCNC(C)=O)NC(=O)CNC(=O)COCCOCCNC(=O)COCCOCCNC(=O)CC[C@@H](NC(=O)CCCCCCCCCCCCCCCCC(=O)O)C(=O)O)C(C)C)C(N)=O
B7: Peptide 66 (peptide)
peptide: {C18 diacid}-[d(γGlu)][AEEA][AEEA]GNHWAV[dA][3Pal]L[Nle]-NH2
SMILES: CCCC[C@H](NC(=O)[C@H](CC(C)C)NC(=O)[C@H](Cc1cccnc1)NC(=O)[C@@H](C)NC(=O)[C@@H](NC(=O)[C@H](C)NC(=O)[C@H](Cc1c[nH]c2ccccc12)NC(=O)[C@H](Cc1c[nH]cn1)NC(=O)[C@H](CC(N)=O)NC(=O)CNC(=O)COCCOCCNC(=O)COCCOCCNC(=O)CC[C@@H](NC(=O)CCCCCCCCCCCCCCCCC(=O)O)C(=O)O)C(C)C)C(N)=O
B8: Peptide 67 (peptide)
peptide: {C18 diacid}-[d(γGlu)][AEEA][AEEA]GEHWAV[dA][3Pal]L[Nle]-NH2
SMILES: CCCC[C@H](NC(=O)[C@H](CC(C)C)NC(=O)[C@H](Cc1cccnc1)NC(=O)[C@@H](C)NC(=O)[C@@H](NC(=O)[C@H](C)NC(=O)[C@H](Cc1c[nH]c2ccccc12)NC(=O)[C@H](Cc1c[nH]cn1)NC(=O)[C@H](CCC(=O)O)NC(=O)CNC(=O)COCCOCCNC(=O)COCCOCCNC(=O)CC[C@@H](NC(=O)CCCCCCCCCCCCCCCCC(=O)O)C(=O)O)C(C)C)C(N)=O
B9: Peptide 4 (peptide)
peptide: {C18 diacid}-[d(γGlu)][AEEA][AEEA]GNHWAV[Aib]HL[Nle]-NH2
SMILES: CCCC[C@H](NC(=O)[C@H](CC(C)C)NC(=O)[C@H](Cc1c[nH]cn1)NC(=O)C(C)(C)NC(=O)[C@@H](NC(=O)[C@H](C)NC(=O)[C@H](Cc1c[nH]c2ccccc12)NC(=O)[C@H](Cc1c[nH]cn1)NC(=O)[C@H](CC(N)=O)NC(=O)CNC(=O)COCCOCCNC(=O)COCCOCCNC(=O)CC[C@@H](NC(=O)CCCCCCCCCCCCCCCCC(=O)O)C(=O)O)C(C)C)C(N)=O
B10: Peptide 68 (peptide)
peptide: {C18 diacid}-[d(γGlu)][AEEA][AEEA]GNHHAV[dA]HL[Nle]-NH2
SMILES: CCCC[C@H](NC(=O)[C@H](CC(C)C)NC(=O)[C@H](Cc1c[nH]cn1)NC(=O)[C@@H](C)NC(=O)[C@@H](NC(=O)[C@H](C)NC(=O)[C@H](Cc1c[nH]cn1)NC(=O)[C@H](Cc1c[nH]cn1)NC(=O)[C@H](CC(N)=O)NC(=O)CNC(=O)COCCOCCNC(=O)COCCOCCNC(=O)CC[C@@H](NC(=O)CCCCCCCCCCCCCCCCC(=O)O)C(=O)O)C(C)C)C(N)=O
B11: Peptide 69 (peptide)
peptide: {C18 diacid}-[d(γGlu)][AEEA][AEEA]GNHWAV[dA]HLR-NH2
SMILES: CC(C)C[C@H](NC(=O)[C@H](Cc1c[nH]cn1)NC(=O)[C@@H](C)NC(=O)[C@@H](NC(=O)[C@H](C)NC(=O)[C@H](Cc1c[nH]c2ccccc12)NC(=O)[C@H](Cc1c[nH]cn1)NC(=O)[C@H](CC(N)=O)NC(=O)CNC(=O)COCCOCCNC(=O)COCCOCCNC(=O)CC[C@@H](NC(=O)CCCCCCCCCCCCCCCCC(=O)O)C(=O)O)C(C)C)C(=O)N[C@@H](CCCNC(=N)N)C(N)=O
B12: Peptide 70 (peptide)
peptide: {C18 diacid}-[d(γGlu)][AEEA][AEEA]GEHW[Aib]V[dA]HL[Nle]-NH2
SMILES: CCCC[C@H](NC(=O)[C@H](CC(C)C)NC(=O)[C@H](Cc1c[nH]cn1)NC(=O)[C@@H](C)NC(=O)[C@@H](NC(=O)C(C)(C)NC(=O)[C@H](Cc1c[nH]c2ccccc12)NC(=O)[C@H](Cc1c[nH]cn1)NC(=O)[C@H](CCC(=O)O)NC(=O)CNC(=O)COCCOCCNC(=O)COCCOCCNC(=O)CC[C@@H](NC(=O)CCCCCCCCCCCCCCCCC(=O)O)C(=O)O)C(C)C)C(N)=O
B13: Peptide 71 (peptide)
peptide: {C18 diacid}-[d(γGlu)][AEEA][AEEA]K(Ac)HWAV[dA]HL[Nle]-NH2
SMILES: CCCC[C@H](NC(=O)[C@H](CC(C)C)NC(=O)[C@H](Cc1c[nH]cn1)NC(=O)[C@@H](C)NC(=O)[C@@H](NC(=O)[C@H](C)NC(=O)[C@H](Cc1c[nH]c2ccccc12)NC(=O)[C@H](Cc1c[nH]cn1)NC(=O)[C@H](CCCCNC(C)=O)NC(=O)COCCOCCNC(=O)COCCOCCNC(=O)CC[C@@H](NC(=O)CCCCCCCCCCCCCCCCC(=O)O)C(=O)O)C(C)C)C(N)=O
B14: Peptide 72 (peptide)
peptide: {C18 diacid}-[d(γGlu)][AEEA][AEEA]GN[3Pal]WAV[dA]HL[Nle][Sar]-NH2
SMILES: CCCC[C@H](NC(=O)[C@H](CC(C)C)NC(=O)[C@H](Cc1c[nH]cn1)NC(=O)[C@@H](C)NC(=O)[C@@H](NC(=O)[C@H](C)NC(=O)[C@H](Cc1c[nH]c2ccccc12)NC(=O)[C@H](Cc1cccnc1)NC(=O)[C@H](CC(N)=O)NC(=O)CNC(=O)COCCOCCNC(=O)COCCOCCNC(=O)CC[C@@H](NC(=O)CCCCCCCCCCCCCCCCC(=O)O)C(=O)O)C(C)C)C(=O)N(C)CC(N)=O
B15: Peptide 73 (peptide)
peptide: {C18 diacid}-[d(γGlu)][AEEA][AEEA]GN[3Pal][Trp(7-Me)]AV[dA]HL[Nle][Sar]-NH2
SMILES: CCCC[C@H](NC(=O)[C@H](CC(C)C)NC(=O)[C@H](Cc1c[nH]cn1)NC(=O)[C@@H](C)NC(=O)[C@@H](NC(=O)[C@H](C)NC(=O)[C@H](Cc1c[nH]c2c(C)cccc12)NC(=O)[C@H](Cc1cccnc1)NC(=O)[C@H](CC(N)=O)NC(=O)CNC(=O)COCCOCCNC(=O)COCCOCCNC(=O)CC[C@@H](NC(=O)CCCCCCCCCCCCCCCCC(=O)O)C(=O)O)C(C)C)C(=O)N(C)CC(N)=O
B16: Peptide 74 (peptide)
peptide: {C18 diacid}-[d(γGlu)][AEEA][AEEA][Aib]NHWAV[dA]HL[Nle]-NH2
SMILES: CCCC[C@H](NC(=O)[C@H](CC(C)C)NC(=O)[C@H](Cc1c[nH]cn1)NC(=O)[C@@H](C)NC(=O)[C@@H](NC(=O)[C@H](C)NC(=O)[C@H](Cc1c[nH]c2ccccc12)NC(=O)[C@H](Cc1c[nH]cn1)NC(=O)[C@H](CC(N)=O)NC(=O)C(C)(C)NC(=O)COCCOCCNC(=O)COCCOCCNC(=O)CC[C@@H](NC(=O)CCCCCCCCCCCCCCCCC(=O)O)C(=O)O)C(C)C)C(N)=O

molecular target: human GRP receptor (human, UniProt P30550 1-384); assay: cell-based or functional assay
Sequence (P30550 whole entry): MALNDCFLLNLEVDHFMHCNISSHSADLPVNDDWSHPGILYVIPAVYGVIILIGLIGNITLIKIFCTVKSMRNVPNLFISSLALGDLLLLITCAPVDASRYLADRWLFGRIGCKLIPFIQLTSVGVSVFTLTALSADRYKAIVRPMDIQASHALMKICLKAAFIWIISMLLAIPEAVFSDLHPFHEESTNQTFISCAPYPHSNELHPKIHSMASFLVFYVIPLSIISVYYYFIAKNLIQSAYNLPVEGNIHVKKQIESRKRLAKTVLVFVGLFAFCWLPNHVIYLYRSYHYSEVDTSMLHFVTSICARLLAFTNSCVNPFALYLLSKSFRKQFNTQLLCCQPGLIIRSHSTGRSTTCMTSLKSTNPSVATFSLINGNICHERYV

Q: Which “hIP1 GRPR EC50” value does the source give for B1 here?
A: The value was 7.27 nM.

Q: With B2 as the binder, how does the “hIP1 GRPR EC50” value read?
A: Its value is 8.25 nM.

Q: With B3 as the binder, how does the “hIP1 GRPR EC50” value read?
A: Its value is 83.7 nM.

Q: B4 was tested. Which “hIP1 GRPR EC50” value did it give?
A: Its value is 4.75 nM.

Q: B5 was tested. Which “hIP1 GRPR EC50” value did it give?
A: Its value is 49.4 nM.

Q: For B6, which “hIP1 GRPR EC50” value is on record?
A: The value was 6.05 nM.

Q: For B7, which “hIP1 GRPR EC50” value is on record?
A: Its value is 308 nM.

Q: Which “hIP1 GRPR EC50” value does the source give for B8 here?
A: The value was 1050 nM.

Q: How did the “hIP1 GRPR EC50” value turn out when B9 was run?
A: Its value is 1420 nM.

Q: B10 was tested. Which “hIP1 GRPR EC50” value did it give?
A: The value was > 10000 nM.

Q: For B11, which “hIP1 GRPR EC50” value is on record?
A: Its value is > 10000 nM.

Q: With B12 as the binder, how does the “hIP1 GRPR EC50” value read?
A: Its value is 972 nM.

Q: For B13, which “hIP1 GRPR EC50” value is on record?
A: Its value is 6.2 nM.

Q: For B14, which “hIP1 GRPR EC50” value is on record?
A: The value was 1050 nM.

Q: B15 was tested. Which “hIP1 GRPR EC50” value did it give?
A: The value was 1190 nM.

Q: How did the “hIP1 GRPR EC50” value turn out when B16 was run?
A: The value was 25.5 nM.
